Assay results reported in the DeepSol protein solubility set.

Assay: soluble on expression in E. coli; label from the status in PepcDB or PDB records
In the case of “MSMFGKVAADVLGLSDIGSVIQPKDYDKVDADDYVMHEDGEKIYFLIKSKSDEYCFTNRALIHLDGTSAASKKRTLRRYDYYKHPISDVSLETAGTVDLDAEIKFKIGPHSYSIDVHKKHIEELKDLYKSLLAIAEICHENEMKFHYAERSLELATKVFANMRGDGANVSADFQAVNEYAFRWLTEAKKNYTVKDFGFVFDKYIQQ”, the “soluble on expression in E. coli” value is reported as “not soluble”.
For “MSNAIEINELHWLLAVTQNIDVGIVVLDLNYRVTVWNTFMENRSGVVPYVAIDKTFFELFPEVNRQWLSKKIDNVVTLGTPAFTIWEQRPYLVRFKNYQPITGHEEFMYQNTTLFPLRSTTGAISHVCLVIYDVTDVAANRN”, the “soluble on expression in E. coli” value was “not soluble”.
For “MSNAPLMPKATAVWLLDNTALTFDQVADFTKMHVLEVKAIADGDAAQGIKGMDPISTGQLTRDEIEKGEGDPDYRLKLAESKVVLPQAAKKKGPRYTPVSRRHERPSAILWLVRNHPELKDAQIMRLVGTTKTTIASVRDRTHWNAATLTPMDPVTLGLCSQLDLDFEVQRAAKEKPIDQQYGGATLLPASETTRKEAEFEAATSGKSQEDLDVDAVFAKLKTIGGKKHDDEDEDGGFLEHHHHHH”, the “soluble on expression in E. coli” value was “soluble”.
For “MSNDETVEKVTQQVSELKSTDVKEQVVTPWDVEGGVDEQGRAQNIDYDKLIKQFGTKPVNEETLKRFKQVTGREPHHFLRKGLFFSERDFTKILDLYEQGKPFFLYTGRGPSSDSMHLGHMIPFVFTKWLQEVFDVPLVIELTDDEKFLFKHKLTINDVKNFARENAKDIIAVGFDPKNTFIFSDLQYMGGAFYETVVRVSRQITGSTAKAVFGFNDSDCIGKFHFASIQIATAFPSSFPNVLGLPDKTPCLIPCAIDQDPYFRVCRDVADKLKYSKPALLHSRFFPALQGSTTKMSASDDTTAIFMTDTPKQIQKKINKYAFSGGQVSADLHRELGGNPDVDVAYQYLSFFKDDDVFLKECYDKYKSGELLSGEMKKLCIETLQEFVKAFQERRAQVDEETLDKFMVPHKLVWGEKERLVAPKPKTKQEKKHHHHHH”, the “soluble on expression in E. coli” value was “soluble”.
For “MSNKEYRPTLAQLRTFATIAENKHFGTAAAKLSISQPSLSQALAALENGLGVQLIERSTRRVIVTPAGEMLLPYAKATLDAADAFLAHAH”, the “soluble on expression in E. coli” value was “soluble”.
In the case of “MSNLLGPRDANGIPVPMTVDESIASMKASLLKKIKRSAYVYRVDCGGCNGCEIEIFATLSPLFDAERFGIKVVPSPRHADILLFTGAVTRAMRSPALRAWQSAPDPKICISYGACGNSGGIFHDLYCVWGGTDKIVPVDVYIPGCPPTPAATLYGFAMALGLLEQKIHARGPGELDEQPAEILHGDMVQPLRVKVDREARRLAGYRYGRQIADDYLTQLGQGEEQVARWLEAENDPRLNEIVSHLNHVVEEARIRLEHHHHHH”, the “soluble on expression in E. coli” value is reported as “not soluble”.
In the case of “MSNQRSSLKHLNTFALPAYASNVISAGSVETLIAAWHESKAKRQPVLLLGEGSNVLFIKNFSGTVLLNRIMGITSTEDSAAWYLHVGAGENWHQLVCHSLQNNMPGLENLALIPGCVGSAPIQNIGAYGVELKQVCEYVDLLDMDKGTIQRISAEECQFGYRDSIFKHRYGNGFAIVSVGIKLMKSWTPTLGYGDLIHMDPLTVTATDIFNSVCTMRRSKLPDPMVTGNAGSFFKNPVVSAAIAEEIVHCYPNAPHYLQPDGSVKLAAGWLIDQCSLKGYQIGGAAVHQQQALVLINQSEATGQDVIHLARYIRQQVAQRFSIWLEPEVRFIADNGEVNAVEHLS”, the “soluble on expression in E. coli” value is reported as “not soluble”.
For “MSNSTEPALAIITVTYSPGKHLGAFLSSVKEATAQPTYVVLADNGSVDGVPEAAAQADPSVEFFPTGGNIGYGSAINAAVRKLAPLRESGKINAEFFVLSNPDVVFEPGSIDAMVQCASRHPQAADIGPYIRQSDGSAYPSARQVPTIKNGVGHALFSSVWPSNPWSRAYRDNRDMTTERTAGWLSGSCLLVRWDAFEQIGGFDERYFMYMEDVDLGDRFGRAGFDNVFCPDAVITHAVGHAAGKHPEKMLPAHHDSAYRFQADRHPGLRYLPLRVLLRVGLKLRAVVAVAAAKFKLEHHHHHH”, the “soluble on expression in E. coli” value was “soluble”.
For “MSNWPYPHIVAHRGGGKLAPENTLAAIDVGARYGHTMIEFDAKLSKDGEIFLLHDDNLERTSNGWGVAGELNWQDLLRVDAGGWFSGEFKGEPLPLLSQVAERCRKHGMMANIEIKPTTGSGRLTGRVVALAARELWAGMTPPLLSSFEIEALEAAQAAAPELPRGLLLDKWREDWRELTTRLGCVSLHLNHKLLDETRVQEIKAAGLRILVYTVNQPQRAAELLRWGVDCICTDRIDDIGPHFQF”, the “soluble on expression in E. coli” value was “not soluble”.
For “MSNYTVKIKNSAKSDLKKIKHSYLKKSFLEIVETLKNDPYKITQSFEKLEPKYLERYSRRINHQHRVVYTVDDRNKEVLILSAWSHYD”, the “soluble on expression in E. coli” value was “not soluble”.
With “MSPAPSRPFSVLRANDVLWLSLTAAEYDQSTYGSSTGPVYVSDSVTLVNVATGAQAVARSLDWTKVTLDGRPLSTIQQHSKTFFVLPLRGKLSFWEAGTTKAGYPYNYNTTASDQLLVENAAGHRVAISTYTTSLGAGPVSISAVAVLA” the “soluble on expression in E. coli” value was “soluble”.
In the case of “MSPLPPPPDIQHEFDKNQDPHETNLALRRLYPQIRERENERHIPRRWDLRQASSYLDISQSGYGVTFKKNVTVAEDKDPAGVVRADAFIQQCIGVYYFEVRILEGHSGCMGIGLSKKDCDLNRMPGWDPGCFGYHGDDGNFFLASGVGQAYGPKFGPGDVIGCGIDTFYHYVFFTKNGKHLGIAHTSPTALKELYPTVGFKTRGEKLVANFGVKPFEFDFEAYRQHLMNKKIHLLENIKMPENFGKQMNRIVSSFLGTTGALATLQKFEETTKPEVPIDHEYYAQRKEITDMILKAARGAEIHEKIEKYFPGLVEDDANVHLLILCLRYIDLANTLHEPPNCFTNSTTGRSPSPTEIRARPPKLLKGSQCKTTKRTREAQRRSANSQVHTPPPVRLTNAKATEELYLKDAKIERFYIDQDTEEEMLHIDGVSMPTKMFVELEKSGQYRKLNYILKMGREIMKVAGEMRGNIAPEARKVVEIATSMVSSPERPAKHPLSFALRRFIANSVVDMICYYVHHKREGKSTKRPRGTSTGEIPGSSSLRMFSELRNLFTGWKGLHIDYSTNDKKMAGIHFVRKMILEEPNFNEKEIIYTDEPMELAHERPDPPPREIIRQQRNEFQF”, the “soluble on expression in E. coli” value is reported as “not soluble”.
For “MSPSKLSNDETPPDLDFRFTGIKQRLIKSENVKQVTASWKRLLVEINKEFTEIAKIGPSYVPKCDFIDIKDNKLPQQVSELFKQRGCLMIENVIDVDRIDIWFNELVEFCKTHPETAGYTFPNPTSWYNVFWSKPQTEARFHPNIKAIFKAMSKEFYVEDKENCLIDLDTQLVYGDRIRIREPGKAAALPLHLDSSSIERWEDIMYSEVYKSIFEGDWENWDAFKLDERTYSKENLYKDEDDTGGKSTICSSFRTLQGWLALSNNKSGEGTLRVLPSLKLSMAYIMLRPFFWKDPESGNIDDYEIDMITPKFPGTVPGTGQLFLDKFYPHLHQGIISIPDVKKGSFVFWHCDLPHEVDREHNGNGHSSVLYYGQTPLSITNIQTLLDTRDAFLKNISPADYRSQLNEEEKQKEFQGANIDDLKNDIDSKRSMGLEEFEIPENMSGGQAKIRSIANQALKTGGFNVDKYIHHAAK”, the “soluble on expression in E. coli” value was “soluble”.
For “MSQGLPLREDVPVSETWDLVDLFKDDQQYYESIDALVQQANQFHHTYATTLNSIEQINTALAELENILIALDRLSNYAELRLSVDTSNIEAQVLSAKLSTTYGKIVSQLSFVESEILELPEEILQQLEESCPYQHYIKQLIKQKPFQLSASVEQVLATLSPTLNSPYDLYGTTKMLDITFDSFEHDGTTYPVDYATFENDYEDNKDPEFRRKSFKSFSDGIRKYQHTTAATYNMQVQQEKIEADLRGFESVIDYLLHSQEVTRDMFDRQIDMIMRDLAPVMQKYAKLLQRIHGLDNMRFEDLKISVDPDYEPEISIEDSKNYIFGALSVLGDDYTNMLREAYDQRWIDFAQNKGKDTGAFCASPYFTHSYVFISWTGKMAEAFVLAHELGHAGHFTLAQKHQPYLESEASMYFVEAPSTMNEMLMANYLFNTSDNPRFKRWIIGSILSRTYYHNMVTHLLEAAYQREVYHKVDQGESLNAPTLNEIMLNVYKQFFGDAVDMTEGAELTWMRQPHYYMGLYSYTYSAGLTIGTVVSQKIKNEGQPAVDAWLETLKKGGSVSPVELANIAGVDITTEQPLKSTIQYISDLVDEVEKLTDEIEQANN”, the “soluble on expression in E. coli” value was “soluble”.
With “MSQGVEFNRLMLDMRAMQADAMSLPKVTAAPELAPGQSTFADMLGQAIGKVHETQQASTQLANAFEIGKSGVDLTDVMIASQKASVSMQAMTQVRNKLVQAYQDIMQMPV” the “soluble on expression in E. coli” value was “not soluble”.
With “MSQKTDAPLESYEVNGATIAVLPEEIDGKICSKIIEKDCVFYVNMKPLQIVDRSCRFFGSSYAGRKAGTYEVTKISHKPPIMVDPSNQIFLFPTLSSTRPQCGWISHVHVKEFKATEFDDTEVTFSNGKTMELPISYNSFENQVYRTAWLRTKFQDRIDHRVPKRQEFMLYPKEERTKMIYDFILRELGERYLEHHHHHH” the “soluble on expression in E. coli” value was “not soluble”.
For “MSQSSDASEKEKPKEKKSQEELEKELDKELKKGGEPKTKKDDQIHKIGETFKAGHTNFTVNKVDRVQKGEYMNVGGAVNEETKTIKDDEERLIIEVTMENIGEDSISYNFIGFDLRDKNDQSVRPVFSIEEKGRILMGGTLVSGKKVTGVLSYVIPKGEQKHYTLVYNPFLADTNSSNTEERVKDDIDYLVKLDLEHHHHHH”, the “soluble on expression in E. coli” value was “soluble”.
For “MSQTRTHEQVLAKEPWYHGLLPREDMKQLLTQRGDFLVRFTDPKVGEPRKFVLSVYVGVIEDIRHYVIREHNNKFAVDKKWFSSIADLLNYYHRSKEPVAGGPETVIIRPIGREPWEKQHSDVTLIKKLGEGAFGEVQLGEIRIGNTVKKAAIKLAKLESLTKEQIKEIMHEARLMRKFKHPNVVTFYGVAAGQEPLMVIMELADNGALDSYLKKNIGSLPISKKHTMVLQAGLGLEYLHSLQIIHRDIASRNCLYGNGQVKISDFGLSREGYSYRMNPHKKVPIRWLAPEVPRTGFYTPKTDVFAYGVMCWEVYHDGIEPYPGMKVAEVLPRVQNGYRMPFEANVPPAIVRFITYRICAGAEEERVTMSEAVRELLTLEGFDQAPGSNSYFELPDHIPMENIEQPKKIQVSNILPYMSKPVAPPFEPERQEKTQEMRKSMSNSAEEGVKKNRRPVRTRIRNGNSPSPGFKSQSRSAAENQNKSNLKAVQKKKNNKQSSSISGDAPSTFSVLGVFGKKKNTADRSDLKKLEEF”, the “soluble on expression in E. coli” value was “not soluble”.
With “MSQVKRANENRETARFIKKHKKQVTNPIDEKNGTSNCIVRVPIALYVSLAPMYLENPLQGVMKQHLNPLVMKYNNKVGGVVLGYEGLKILDADPLSKEDTSEKLIKITPDTPFGFTWCHVNLYVWQPQVGDVLEGYIFIQSASHIGLLIHDAFNASIKKNNIPVDWTFVHNDGNRSLGHWVDSNGEPIDGKLRFTVRNVHTTGRVVSVDGTLIS” the “soluble on expression in E. coli” value was “soluble”.
For “MSRDTGDNLDRNQSGNLPMANVMDAYLSRRSVMRGSLGAAIAMIAGTGLTGCFDGGGSDHDDPVTEPPVTEPPVTEPEVPKLALGFQSIPGSRTDACVVAAGYSAYVLAPWGTPLNSNGNPWKSDGSNTSTDQANAMGMHHDGMHFFPINGSSEDGLLAINFEYIDTAALHPAGPTTDVNGKRPVEEVRKEINAHGAGVVRLQKINGRWQVVDNDPLNRRFTTASRMEITGPLRGTDHVKTKYSTAGTHCRGTNNNCGNGYTPWGTYLTCEENWPGIFVNKGTRPEDQRRIGVGTSSGQYKWESAAGDASEVDDEFARFDVTVKGASATDDYRNEASTYGYIVEIDPYNSSTLATKRTALGRFRHEGCAPGLPVAGKPLVWYMGDDSNNEYLYKWVSTAVWDPADATPADRLATGAKYLDQGKLYVARFNADGTGVWLLLDVATATTAGSTLGALYGDLPGIILNTRGAGDAVGATPMDRPEWTTVNPLNGDVYLTLTNNSARTPDKVDAANPRGPNRHGHIIRWHDSDDQLSFTWDIFVFGANAAGTADINRSGLTELNQFASPDGMSFDSRGVLWFETDNGETTLTDYTNDQLLAVIPTDLVDASGKQVPVNAQNQVDLRRFFVGPNGCEVTGITFTPDNKTLFVNIQHPDNWPYTDKATDATPAGATVRPRASTVVIQRIDGGEIGTV”, the “soluble on expression in E. coli” value was “not soluble”.
